Measured values taken from PMC10229537, “A cryo-EM structure of KTF1-bound polymerase V transcription elongation complex” (Nature Communications, 2023).

T1: NRP(D/E)2 (Arabidopsis thaliana (endogenous in T87 …, UniProt Q9LK40 1-1172))
T1 construct: NRP(D/E)2, second largest subunit shared by Pol IV and Pol V, Arabidopsis thaliana; also called NRP(D/E)2 subunit; source: endogenous, A. thaliana T87 cells, co-purified with 3xFLAG-10xHis-NRPE1
T1 sequence (looked up): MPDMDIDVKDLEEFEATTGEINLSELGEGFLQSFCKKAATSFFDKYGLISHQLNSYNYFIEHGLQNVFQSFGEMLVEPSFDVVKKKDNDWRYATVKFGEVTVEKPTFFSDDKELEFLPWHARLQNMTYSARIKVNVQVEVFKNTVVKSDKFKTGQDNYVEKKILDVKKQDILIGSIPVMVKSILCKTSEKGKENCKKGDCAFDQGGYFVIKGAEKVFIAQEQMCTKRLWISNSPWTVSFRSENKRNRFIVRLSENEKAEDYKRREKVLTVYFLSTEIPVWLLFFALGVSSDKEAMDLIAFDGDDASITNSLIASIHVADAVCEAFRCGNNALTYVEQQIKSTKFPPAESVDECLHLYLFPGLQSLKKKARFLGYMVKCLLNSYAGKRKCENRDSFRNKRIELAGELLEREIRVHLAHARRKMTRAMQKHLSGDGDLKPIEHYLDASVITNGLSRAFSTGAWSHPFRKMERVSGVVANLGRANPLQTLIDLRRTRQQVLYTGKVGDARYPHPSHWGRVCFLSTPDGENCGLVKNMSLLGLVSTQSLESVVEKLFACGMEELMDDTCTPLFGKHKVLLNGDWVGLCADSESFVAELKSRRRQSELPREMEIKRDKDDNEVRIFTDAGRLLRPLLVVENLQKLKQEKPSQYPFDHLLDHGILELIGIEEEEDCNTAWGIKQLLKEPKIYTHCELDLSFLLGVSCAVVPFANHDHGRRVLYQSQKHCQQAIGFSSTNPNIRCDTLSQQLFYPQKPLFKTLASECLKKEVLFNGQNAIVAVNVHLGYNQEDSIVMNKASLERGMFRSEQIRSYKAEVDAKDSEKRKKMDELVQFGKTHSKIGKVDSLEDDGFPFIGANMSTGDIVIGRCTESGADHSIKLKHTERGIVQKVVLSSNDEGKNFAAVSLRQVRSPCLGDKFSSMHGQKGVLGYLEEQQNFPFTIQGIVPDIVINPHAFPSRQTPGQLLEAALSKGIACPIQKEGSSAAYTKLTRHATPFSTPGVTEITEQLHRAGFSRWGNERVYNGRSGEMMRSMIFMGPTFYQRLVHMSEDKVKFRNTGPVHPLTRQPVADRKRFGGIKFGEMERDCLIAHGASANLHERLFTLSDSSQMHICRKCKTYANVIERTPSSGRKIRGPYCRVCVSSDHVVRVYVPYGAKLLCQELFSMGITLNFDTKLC

B1: NRP(B/D/E)3 (natural protein, UniProt Q39211 1-319, looked up)
chain: MDGATYQRFPKIKIRELKDDYAKFELRETDVSMANALRRVMISEVPTVAIDLVEIEVNSSVLNDEFIAHRLGLIPLTSERAMSMRFSRDCDACDGDGQCEFCSVEFRLSSKCVTDQTLDVTSRDLYSADPTVTPVDFTIDSSVSDSSEHKGIIIVKLRRGQELKLRAIARKGIGKDHAKWSPAATVTFMYEPDIIINEDMMDTLSDEEKIDLIESSPTKVFGMDPVTRQVVVVDPEAYTYDEEVIKKAEAMGKPGLIEISPKDDSFIFTVESTGAVKASQLVLNAIDLLKQKLDAVRLSDDTVEADDQFGELGAHMRGG
notes: NRP(B/D/E)3, subunit 3 shared by Pol II, IV and V, Arabidopsis thaliana; also called NRPE(B/D/E)3; source: endogenous, A. thaliana T87 cells, co-purified with 3xFLAG-10xHis-NRPE1
B2: NRP(A/B/C/D/E)12 (natural protein)
chain: not shown
notes: NRP(A/B/C/D/E)12, subunit 12 shared by Pol I-V, Arabidopsis thaliana; source: endogenous, A. thaliana T87 cells, co-purified with 3xFLAG-10xHis-NRPE1
B3: KOW domain-containing transcription factor 1 (KTF1), residues 1-712, the conserved N-terminal domain (domain or fragment, Arabidopsis thaliana, UniProt F4JW79 1-712, looked up)
chain: MDRKGKGKQVAGSDSYSGGQKRKNSVEFRDEGLRIKKRKNPEVLQFFEESAEVGYYGGSSDEDDDGLGFLNDMEDEPEVEESSKAGKGEKGKSSFVFPKEEDLNEEEFDRIMEERYKPGSGFLRYADDDIKDAIEMDALAPTSKDPPIWKVKCAIGRERRSVFCLMHKFVELRKIGTKLEIISVFSVDHVKGFIFIEADKEHDVLEACKSLVGIYATRMVLLPKAETPNLLTVQKKTKKVSEGTWARVKNGKYKGDLAQIVAVSDTRNKALIKLIPRIDIQALTQKYGGGVTVQKGQTPAPRLISSSELEEFRPLIQVRRDRDTGITFEHLDSLMLKDGYLYKKVSLDSISSWGVIPTKDELLKFTPVDRKETGDVEWISEIYGEERKKKILPTCREGGKGEGSGGGKGEGSGGGKGEGSRGGKGEGSSDFKSESSYELYNLVCFSRKDFGLIVGVDDKGDGYKVLKEGIDGPVVVTVGKKEMQNGPFDSKFTALDLNKKQISVNDVVKISKGPSEGKQGVVRQVYRGIIFLYDESEEENGGYFCCKSQSCEKVKLFTEESNEKTGGFDGTAFEDFVSSPKSPLSPEKEWQPRERYNSSNQGDIGSTYSIGQKLRIRVGPLKGYLCRVIALRYSDVTVKLDSQHKIFTVKSEHLAEVRDRNTVLSTSGDAGTGSFQPFGMLGTESSTGDWAIGAGTSSEGGNWNIGGPSTDS
notes: KTF1 (SPT5L), Arabidopsis thaliana, At5g04290, residues 1-712 (NGN, KOW1, KOW4, KOW5; without the C-terminal GW/WG repeats); The modified pETDuet1 vector carries a 6xHis-tagged SUMOstar that was cleaved on the column; Added to Pol V as the heterodimer with SPT4; Only the KOW5 domain is seen in the map; also called SPT5L; truncated KTF1 (1-712)

Experiments:
[1] = biological target: B3; experiment: cryo-EM structure; Pol V, nucleic-acid scaffold and KTF1/SPT4 heterodimer mixed 1:1.2:3 in 20 mM HEPES pH 7.5, 100 mM NaCl, 5 mM MgCl2, 1 mM DTT; complex taken from Superose 6 Increase; maps at 3.2 Å and 4.3 Å, local maps at 3.0 Å and 3.7 Å; conditions: both partners purified
NRP(D/E)2 = biological target: T1, NRP(D/E)2; experiment: as above; conditions: both partners purified

binding result [1] | binding result (NRP(D/E)2) | Binder
binds |  | B1
binds |  | B2
 | binds | B3
